Results as given in the DeepSol protein solubility set.

Assay: soluble on expression in E. coli; label from the status in PepcDB or PDB records

Row | Sequence | soluble on expression in E. coli
1 | MGSDKIHHHHHHMSINSREVLAEKVKNAVNNQPVTDMHTHLFSPNFGEILLWDIDELLTYHYLVAEVMRWTDVSIEAFWAMSKREQADLIWEELFIKRSPVSEACRGVLTCLQGLGLDPATRDLQVYREYFAKKTSEEQVDTVLQLANVSDVVMTNDPFDDNERISWLEGKQPDSRFHAALRLDPLLNEYEQTKHRLRDWGYKVNDEWNEGSIQEVKRFLTDWIERMDPVYMAVSLPPTFSFPEESNRGRIIRDCLLPVAEKHNIPFAMMIGVKKRVHPALGDAGDFVGKASMDGVEHLLREYPNNKFLVTMLSRENQHELVVLARKFSNLMIFGCWWFMNNPEIINEMTRMRMEMLGTSFIPQHSDARVLEQLIYKWHHSKSIIAEVLIDKYDDILQAGWEVTEEEIKRDVADLFSRNFWRFVGRNDHVTSVKVEQQT | not soluble
2 | SSFQTSLPRLPVPAVKDTVSRYLESVRPLMKEGDFQRMTALAQDFAVNLGPKLQWYLKLKSWWATNYVSDWWEEYIYLRGRGPIMVNSNYYAMEMLYITPTHIQAARAGNTIHAILLYRRTVDREELKPIRLLGSTIPLCSAQWERLFNTSRIPGEETDTIQHVKDSRHIVVYHRGRYFKVWLYHDGRLLRPRELEQQMQQILDDTSEPQPGEAKLAALTAADRVPWAKCRQTYFARGKNKQSLDAVEKAAFFVTLDESEQGYREEDPEASIDSYAKSLLHGRCFDRWFDKSITFVVFKNSKIGINAEHSWADAPIVGHLWEYVMATDVFQLGYSEDGHCKGDKNPNIPKPTRLQWDIPGECQEVIETSLSSASFLANDVDLHSFPFDTFGKGLIKKCRTSPDAFIQLALQLAHYKDMGKFCLTYEASMTRLFREGRTETVRSCTTESCNFVLAMMDPTTTAEQRFKLFKIACEKHQHLYRLAMTGAGIDRHLFCLYVVSKYLAVDSPFLKEVLSEPWRLSTSQTPQQQVELFDFEKYPDYVSCGGGFGPVADDGYGVSYIIVGENFIHFHISSKFSSPETDSHRFGKHLRQAMMDIITLFGLTANSKK | soluble
3 | MLAAAHKAGGTFAAESILILRNRLSGVADILADFPDDVPVYVAEAPVLDGIVGFHLHRGILALGRRVRDDGLEQMTAALPASSLVLVGCGISNHDNLGAMFRNAAAFYADAVLLDETCCDPLYRKALRVSVGSVLSVPYHRGGGAVEMLERLSEEGFAIWGLSPDGKTEIRDIPRSERMALVIGTEGEGLPQSVLSRFQTARIAQSPQVDSLNAGTASGLALYQMAGVMGRV | not soluble
4 | MSLGTILHSELEKFYDPNLIVGNETADDAAVYDLGNGTAIISTTDFFMPIVDDPFDFGRIAATNAISDIFAMGGKPIMGIAILGFPTNVLPAEVAQKIVDGGRFACHQAGIALAGGHSIDSPEPIFGLAVTGVIDTEKVKRNASAKSGCKLYMTKPLGIGILTTAEKKGKLKPEHQGLATAAMCQMNSIGSQFSQVDGVTAMTDVTGFGLLGHLIEICEGSNLSAVVFSDKIKTLDGVKDYIAQGCVPGGTGRNFDSYGHKVGILTEEQKAILCDPQTSGGLLVAVELNSVQTVIDIAKDAGIDLYEVGKLKPKSESDIVVEVKEGHHHHHH | soluble
5 | MKKFLALLLSVIIVFSLTACGGKNSGNNSNNSSNNNSSNNTGGKKIKIGMVTDVGGVNDGSFNQSAWEGLQRAQKELGVEVRYAESATDADYAPNIEAFIDEGYDLIICVGYMLADATRKAAEANPNQKFAIIDDASIDLPNVTCLMFEQSQASYLVGLVAGKMTKTNKVGFVVGMVSQTMNEFGYGYLAGVKDANPNATILQFNANSFSSTETGKSAATTMITNGADVIFHAAGGTGLGVIEGCKDAGKWAIGVDSDQSPLAPENILTSAMKRVDNACFDIAKAVKEGNVKPGIITYDLKSAGVDIAPTTTNLPKEVLDYVNQAKQDIINGKITVPKTKAEFEAKYGNIYELDD | soluble
6 | MGSDKIHHHHHHMNYKNRKRAYYQENSCMDNFICKNCGCLVVPEGAGTQHRNHCPHCLHSLHVDIIPGDRAADCDANMEPIGVWVRKNGEWAIIHRCTRCGHLSSNRIAADDNSVKLMSIALKPLAQPPFPLERIIEKLEKEETE | not soluble
7 | MVVQVQPVEVDVESLVTRVFLKAIDLLGGLHKLAEYRTLTWLPSLARAAFVIVYREEFLKTEEEIAELVGLTRQTVRNILRADPELALYKIQHIDELTKEEKKELRVHTAGGIAKLAYKKVKEGEEPKVFLEFCTMAAEALEVPWAYLLLKKIKGTHFPINSPEELKEKVKGVVIKGMPAEEVVEKIEYPVKNPADLLHKIKIHLKMMGVE | soluble
8 | MDNDKNSIIDIVGDGINYEKLKKVEKSLCQIDIITEFMNRSRHLQGKKVNGCIMRIDETKQLLFHVIIDGPVGSIYEGGTFFADINIQPYQNHSLIPRVCFHTFIFHPNLGKYGNWDMRGIQWERRSNLEVLYNFIVEGMRNVKYDIERRNLAQLEDMSQPNISRLAKEDWPKFERTAREFVMKMAGGTINGRKTIFAETKKRRRQDFLDEDIDVIGIS | not soluble
9 | GMSIPANNSPVRLALIGAGRWGKNYIRTIAGLPGAALVRLASSNPDNLALVPPGCVIESDWRSVVSAPEVEAVIIATPPATHAEITLAAIASGKAVLVEKPLTLDLAEAEAVAAAAKATGVMVWVEHTQLFNPAWEALKADLTSIGPILAVRSEAGNHGPYRPGGVPMLWDWGAHDVSMVLDLMGRDPDSTSASWAARGEKDGGEAGDVTLTLAFSTVEAHIRLCNTMDKCRRLAVFGEAGTLVMDDRATDKLTLHPPQPDGNWPVGQGHALTVTDEMPLTRAVRLFAGAVRQPEPGPSPLELGLRVVRVLGACS | soluble
10 | MIMAANEKEMRIKIIKDGPYRVTGGVPLLEQVIVTDDDGHTRDLIDIKEYPRREAYILCRCGSSENKPFCDGAHRKVGFDGSETASRTPYLEKAETFEGPDLKLTDVYELCDHSRFCQRSGGIRDLIQKSDDPEARQTAIEEAMICPSGRLVLWDKKTGKPFEKEFDPSIILVHDKQKGCEGPLWVRGGVPIESADGSMYEPRNRVTLCRCGKSENKPYCDGSHWMNSQQKLEFRKKWGLELEHHHHHH | not soluble
11 | MGSDKIHHHHHHMLFNTRPKEDRKDLYDREKEIEMIKDSIARGEWIAVLGMRRIGKTSVVNVAVKEIGAIKVSINLMRIHDSRKKQYPKHVLISLLIEEINEAIKNYTILGKVAKLLSNILGVEEIQTNKVRAKLTKIRGTDITYIIREMDSIARDNKKQLVIILDEAQELAKVNGLDFPSIFHDVYDNCKNTVIIFTGSMVKLIEKTLKNIEYTEPFFGRYIRKITLGRFLPEQSREFLEKGFEEEGIKVDESVIDEAVKRLDGIPGWLTLFGSEYTFSAKMGTKPRIDEIIEKAINEVRNEARNFIFSTQSPLRYSAVILALDRLGGKGELHEIVKVSSTILNENIPEPRVYEILNRLVEFDFIERREDNEYYLHQDEPNRKGLILAAKDSPASYSI | not soluble
12 | MIAGPLGRASELHRYEGNQTVVFCAGGVGLPPVYPIMREHLRLGNHVTLISGFRAKEFLFWTGDDERVGKLKKEFGDQLSLIYTTNDGSYGVKGFVTGPLEEMMKANQEGKGRSIAEVIAIGPPLMMRAVSDLTKPYGVKTVASLEHHHHHH | not soluble
13 | MLNSKPVSYQVLKFILKHLDPSLRIQLCLVCPSIHTLEKSTPSYIHYLKITDNSVTVNRVTCQITVTDRKVDYQFDINQFPSISGTVELRNSRNNLTKTMKYLLDKLFKGRTVKVGQLAISCENPLRVPLAARINVNVLEVFDSRSLSAASSLIANSCLPLSLIKLPFKSLLKTNNNPITSIVNRKTKKWHFKAPTTAPHNLRRVLTFLQNRRVTTAHFERGHFCFSIVIEYFMGDSDIENGTYYTFDTTRGAVFVVMERSRKRYKAMLEDGSSRRSNQLTIKKNSTSKLVISKIQQGDAWILGFKIERRRLFPTFF | not soluble
14 | MNIVITGGTGLIGRHLIPRLLELGHQITVVTRNPQKASSVLGPRVTLWQGLADQSNLNGVDAVINLAGEPIADKRWTHKQKERLCQSRWNITQKLVDLINASDTPPSVLISGSATGYYGDLGEVVVTEEEPPHNEFTHKLCARWEEIACRAQSDKTRVCLLRTGVVLAPDGGILGKMLPPFRLGLGGPIGSGRQYLAWIHIDDMVNGILWLLDNELRGPFNMVSPYPVRNEQFAHALGHALHRPAILRVPTTAIRLLMGESSVLVLGGQRALPKRLEEAGFAFRWYDLEEALADVVR | not soluble
15 | MDEIDLRILKILQYNAKYSLDEIAREIRIPKSTLSYRIKKLEKDGVIKGYYAYINPASLNLDYIVITSVKAKYGKNYHVELGNKLAQIPGVWGVYFVLGDNDFIVMARYKTREEFMEKFLERVMSIPEVERASTQVVVKIIKESPNIVIF | soluble
16 | AIYVDLPNRQLKVKVADRRVISTTDAERQAVTPPGLQEAINDLVKKYTLARAFVRPSGTEDIVRVYAEANSQESADRLAYEVSLLVFQLAGGIGERPQP | soluble
17 | MKQSIRHNKIIELVNQLGYVSTEELVAQLAVSSQTIRRDLNELAEKNLLRRHHGGAGMPSNNENSDYSERKKFFSAQKNIIAQQVAEMIPNGSSLFLDIGTTSEAVAYALLSHQHLRIVTNNLNAAHILMQKDDFQITIAGGDLRADGGIIGEATVNFISEFRLDFGILGISAIDQDGSMLDYDYHEVQVKRALMQSSRQVILVTDHSKFNRRAIVRLGNISEVNYLFTDLPLPLELQQYLAPTNVTVYICNNLEHHHHHH | soluble
18 | MGSDKIHHHHHHMQGVEPRERPYPQPNIQISYKKMEECPICLADDQEGEQFGCLNVCGHKFHLNCIREWHKYSINLKCPICRVESTHLEVGEGQHALSINLKMGFMIKNAIDYVGAETTNERNEDDTGEQDQEIEFLSERLRGTLVMDTIKIIQCSICGDTDVSRLSLYCQDCEAIYHETCLRGLACEVGDRNTWQECTDCRSNALLELRMGAISSQLASYDSRNSMIFAGELRDKHSVKTQQMYEQIRNAKHKIQMHVRRALDRYPLPLLRFKDAYKHVNKQVSRKLYRLSDNKYLPDQYDYDSLARTGVHTELLIYCHDE | not soluble
19 | MGHHHHHHSHMSWLKEVIGTEKAVIAMCHLRALPGDPGFDTRKGMNWVIDRAHDDLMALQNGGVDAVMFSNEFSLPYLTKVRPETTAAMARIIGQLMSEIRVPFGVNVLWDPVASFDLAMATDAKFIREIFTGAYASDFGVWDTNVGETIRHQHRIGAGHVKTLFNIVPEAAVYLGNRDVCSIAKSTVFNNNPDALCVSGLTAGARTDSAILKRVKETVPDTVVLANTGVCLENVEEQLCIADGCVTATTFKKDGVFANFVDQARVAKFMEKVRHIRQ | soluble
20 | MQRMAKMKAMEKHHGYKVLTMIHRREMISLFGLPAYQSIDEEDAEQVLRWIRKYRDYPLELILHTPGGQLHASIQIARALKNHPKKTRVLIPHYSMSGGTIIALAADEIVMDKDAVIGPIDPQVGDPIRGVFPAPSWIHAAETKKEDADDSTLVMSDISRKALRLTRNVAKELLEGKIQPDGKEDRLEEVVEKLVSGEMIHSTPLSAREAKELGLSVNTDFPEDVHDFMRLFRPVKKTVEYVG | not soluble
21 | MGSDKIHHHHHHMNEEEDAFSYLSKLGLTPYEIKVYKTLLIYGPNSATETAKLSKVPQPRVYDIFESLESKGAVEVSPGKRKIYRAVPIDNFIDRKLIEIRDYKKRIESYIEQQKKFKESNPYLWMIKNNFQIREKMKDVINEAENELIASLNYENIRYLKKYFIDAAKRGITVVIVAFPDAELDFLRTFPEDIVIRIRRGSASQVMIADRKHGLINVESTEDSEGYALYFDENELIHILNYYFYHTIWGPSDMFHDFPVRQNIKFSTAWLSCEAIDSFFKRSYSVSGIVTGYSATGQVKIEGTITGIDLIPGFKHTFFIKDNERVYSVGGKTARMEDIKLETLTMNVWIPNKQAISQKQ | not soluble
22 | MIFDKNFSYAFDENACEKCGGKCCTGESGNIFASKEELEVLRKHLNLESKEFAEKYLRKVGFKMSFKEVECEDGFACIFFDTQKRNCSIYDFRPKQCRTFPFWEYFKTHQKELEKECIGICYLSLEHHHHHH | not soluble
